Assay results: patent publication US20200024322A1 (Eli Lilly, published 2020)
Numbering of substitutions follows the chain as printed. Numbered stars: 1 amine (or outer) side, 2 acyl side, 3 side chain; on linkers, the order of the positions; unused ones are H or OH. Square brackets hold non-standard residues; d marks the D form. Side chains are listed from the residue outwards. Ends that are not written are not given here. * marks the point of attachment. C20 diacid = O=C(O)CCCCCCCCCCCCCCCCCCC(=O)*; αMePhe(2-F) = C[C@](N)(Cc1ccccc1F)C(=O)O; γGlu = O=C(O)[C@H](CCC(=O)[*:2])N[*:1]; αMeF = C[C@](N)(Cc1ccccc1)C(=O)O; αMeL = CC(C)C[C@](C)(N)C(=O)O; AEEA = NCCOCCOCC(=O)O; Aib = CC(C)(N)C(=O)O

T1: human GIP receptor (human, UniProt P48546 22-466)
T1 construct: whole, on cells; Used as crude membranes of stably transfected CHO cells; also called hGIPR
T1 sequence (looked up): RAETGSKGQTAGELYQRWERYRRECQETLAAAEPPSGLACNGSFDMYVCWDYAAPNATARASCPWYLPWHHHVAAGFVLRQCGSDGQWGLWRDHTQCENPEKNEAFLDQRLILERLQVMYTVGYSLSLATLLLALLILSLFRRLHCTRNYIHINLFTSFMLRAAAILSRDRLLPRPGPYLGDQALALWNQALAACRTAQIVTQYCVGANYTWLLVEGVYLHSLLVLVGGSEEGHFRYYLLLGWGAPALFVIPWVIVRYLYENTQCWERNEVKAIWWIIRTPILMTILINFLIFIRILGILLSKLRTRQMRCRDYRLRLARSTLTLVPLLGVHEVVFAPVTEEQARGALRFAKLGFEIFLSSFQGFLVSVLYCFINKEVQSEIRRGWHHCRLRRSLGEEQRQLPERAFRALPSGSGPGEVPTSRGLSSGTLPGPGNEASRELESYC

B1: Example 88 (peptide)
peptide: YPEGTFTSDYSILLDKK([AEEA-AEEA-γGlu-C20 diacid])AQ[Aib]AFIEYLIEGGPSSGAPPPS-NH2
modifications: N-terminus assumed
SMILES: CC[C@H](C)[C@H](NC(=O)[C@H](CC(C)C)NC(=O)[C@H](Cc1ccc(O)cc1)NC(=O)[C@H](CCC(=O)O)NC(=O)[C@@H](NC(=O)[C@H](Cc1ccccc1)NC(=O)[C@H](C)NC(=O)C(C)(C)NC(=O)[C@H](CCC(N)=O)NC(=O)[C@H](C)NC(=O)[C@H](CCCCNC(=O)COCCOCCNC(=O)COCCOCCNC(=O)CC[C@H](NC(=O)CCCCCCCCCCCCCCCCCCC(=O)O)C(=O)O)NC(=O)[C@H](CCCCN)NC(=O)[C@H](CC(=O)O)NC(=O)[C@H](CC(C)C)NC(=O)[C@H](CC(C)C)NC(=O)[C@@H](NC(=O)[C@H](CO)NC(=O)[C@H](Cc1ccc(O)cc1)NC(=O)[C@H](CC(=O)O)NC(=O)[C@H](CO)NC(=O)[C@@H](NC(=O)[C@H](Cc1ccccc1)NC(=O)[C@@H](NC(=O)CNC(=O)[C@H](CCC(=O)O)NC(=O)[C@@H]1CCCN1C(=O)[C@@H](N)Cc1ccc(O)cc1)[C@@H](C)O)[C@@H](C)O)[C@@H](C)CC)[C@@H](C)CC)C(=O)N[C@@H](CCC(=O)O)C(=O)NCC(=O)NCC(=O)N1CCC[C@H]1C(=O)N[C@@H](CO)C(=O)N[C@@H](CO)C(=O)NCC(=O)N[C@@H](C)C(=O)N1CCC[C@H]1C(=O)N1CCC[C@H]1C(=O)N1CCC[C@H]1C(=O)N[C@@H](CO)C(N)=O
B2: Example 100 (peptide)
peptide: YXEGTXTSDYSIXLDEKAQXAFIEYLIEGG
modifications: Aib2; αMeF6; αMeL13; K17((2-[2-(2-Amino-ethoxy)-ethoxy]-acetyl)2-(γ-Glu)-CO-(CH2)18-CO2H); Aib20; C-terminal NH2
B3: Example 99 (peptide)
peptide: B2 peptide with E16K
modifications: Aib2; αMeF6; αMeL13; K17((2-[2-(2-Amino-ethoxy)-ethoxy]-acetyl)2-(γ-Glu)-CO-(CH2)18-CO2H); Aib20; C-terminal NH2
B4: Example 104 (peptide)
peptide: B2 peptide with A21E
modifications: Aib2; αMeF(2F)6; αMeL13; K17((2-[2-(2-Amino-ethoxy)-ethoxy]-acetyl)2-(γ-Glu)-CO-(CH2)16-CO2H); Aib20; C-terminal NH2
B5: Example 103 (peptide)
peptide: B2 peptide with A21E
modifications: Aib2; αMeF(2F)6; αMeL13; K17((2-[2-(2-Amino-ethoxy)-ethoxy]-acetyl)2-(γ-Glu)-CO-(CH2)18-CO2H); Aib20; C-terminal NH2
B6: Example 150 (peptide)
peptide: YXEGTXTSDYSIXLDEKAQXEFISYLIEGGPSSGAPPPS
modifications: Aib2; αMeF(2F)6; αMeL13; K17((2-[2-(2-Amino-ethoxy)-ethoxy]-acetyl)2-(γ-Glu)-CO-(CH2)18-CO2H); Aib20; C-terminal NH2
B7: Example 5 (peptide)
peptide: B6 peptide with Y10V, E16X, S24X, Y25X
modifications: not fully specified; Aib2; αMeF(2F)6; αMeL13; Orn16; K17((2-[2-(2-Amino-ethoxy)-ethoxy]-acetyl)2-(γ-Glu)-CO-(CH2)16-CO2H); Aib20; D-Glu24; αMeY25; C-terminal NH2
B8: Example 76 (peptide)
peptide: B6 peptide with E16K, E21A, F22X, S24E
modifications: Aib2; αMeF6 (printed aMeF); αMeL13; K17((2-[2-(2-Amino-ethoxy)-ethoxy]-acetyl)2-(γ-Glu)-CO-(CH2)18-CO2H); Aib20; αMeF22; C-terminal NH2
B9: Example 4 (peptide)
peptide: B6 peptide with Y10X, E16X, S24X, Y25X
modifications: not fully specified; Aib2; αMeF(2F)6; 4Pal10; αMeL13; Orn16; K17((2-[2-(2-Amino-ethoxy)-ethoxy]-acetyl)2-(γ-Glu)-CO-(CH2)16-CO2H); Aib20; D-Glu24; αMeY25; C-terminal NH2
B10: Example 153 (peptide)
peptide: B6 peptide with S24H
modifications: Aib2; αMeF(2F)6; αMeL13; K17((2-[2-(2-Amino-ethoxy)-ethoxy]-acetyl)2-(γ-Glu)-CO-(CH2)18-CO2H); Aib20; C-terminal NH2
B11: Example 154 (peptide)
peptide: Y[Aib]EGT[αMePhe(2-F)]TSDHSI[αMeL]LDEK([AEEA-AEEA-γGlu-C20 diacid])AQ[Aib]EFIEYLIEGGPSSGAPPPS-NH2
modifications: N-terminus assumed
SMILES: CC[C@H](C)[C@H](NC(=O)[C@H](CC(C)C)NC(=O)[C@H](Cc1ccc(O)cc1)NC(=O)[C@H](CCC(=O)O)NC(=O)[C@@H](NC(=O)[C@H](Cc1ccccc1)NC(=O)[C@H](CCC(=O)O)NC(=O)C(C)(C)NC(=O)[C@H](CCC(N)=O)NC(=O)[C@H](C)NC(=O)[C@H](CCCCNC(=O)COCCOCCNC(=O)COCCOCCNC(=O)CC[C@H](NC(=O)CCCCCCCCCCCCCCCCCCC(=O)O)C(=O)O)NC(=O)[C@H](CCC(=O)O)NC(=O)[C@H](CC(=O)O)NC(=O)[C@H](CC(C)C)NC(=O)[C@](C)(CC(C)C)NC(=O)[C@@H](NC(=O)[C@H](CO)NC(=O)[C@H](Cc1c[nH]cn1)NC(=O)[C@H](CC(=O)O)NC(=O)[C@H](CO)NC(=O)[C@@H](NC(=O)[C@](C)(Cc1ccccc1F)NC(=O)[C@@H](NC(=O)CNC(=O)[C@H](CCC(=O)O)NC(=O)C(C)(C)NC(=O)[C@@H](N)Cc1ccc(O)cc1)[C@@H](C)O)[C@@H](C)O)[C@@H](C)CC)[C@@H](C)CC)C(=O)N[C@@H](CCC(=O)O)C(=O)NCC(=O)NCC(=O)N1CCC[C@H]1C(=O)N[C@@H](CO)C(=O)N[C@@H](CO)C(=O)NCC(=O)N[C@@H](C)C(=O)N1CCC[C@H]1C(=O)N1CCC[C@H]1C(=O)N1CCC[C@H]1C(=O)N[C@@H](CO)C(N)=O
B12: Example 163 (peptide)
peptide: B6 peptide with Y1H, S24E
modifications: Aib2; αMeF(2F)6; αMeL13; K17((2-[2-(2-Amino-ethoxy)-ethoxy]-acetyl)2-(γ-Glu)-CO-(CH2)18-CO2H); Aib20; C-terminal NH2
B13: Example 74 (peptide)
peptide: YXEGTFTSDYSIXLDKKAQXAXIEYLIEGGPSSGAPPPS
modifications: Aib2; αMeL13; K17((2-[2-(2-Amino-ethoxy)-ethoxy]-acetyl)2-(γ-Glu)-CO-(CH2)18-CO2H); Aib20; αMeF22; C-terminal NH2
B14: Example 78 (peptide)
peptide: B13 peptide with Y1X, X13L, X22F
modifications: D-Tyr1; Aib2; K17((2-[2-(2-Amino-ethoxy)-ethoxy]-acetyl)2-(γ-Glu)-CO-(CH2)18-CO2H); Aib20; C-terminal NH2
B15: Example 91 (peptide)
peptide: B13 peptide with E3X, X13L, X22F
modifications: Aib2; γ-Glu3; K17((2-[2-(2-Amino-ethoxy)-ethoxy]-acetyl)2-(γ-Glu)-CO-(CH2)18-CO2H); Aib20; C-terminal NH2
B16: Example 83 (peptide)
peptide: B13 peptide with X13L, X22F, E28X
modifications: Aib2; K17((2-[2-(2-Amino-ethoxy)-ethoxy]-acetyl)2-(γ-Glu)-CO-(CH2)18-CO2H); Aib20; D-Glu28; C-terminal NH2
B17: Example 79 (peptide)
peptide: B13 peptide with Y1X, X2A, X13L, X22F
modifications: N-terminal Ac; D-Tyr1; K17((2-[2-(2-Amino-ethoxy)-ethoxy]-acetyl)2-(γ-Glu)-CO-(CH2)18-CO2H); Aib20; C-terminal NH2
B18: Example 81 (peptide)
peptide: B13 peptide with S11X, X13L, X22F
modifications: Aib2; D-Ser11; K17((2-[2-(2-Amino-ethoxy)-ethoxy]-acetyl)2-(γ-Glu)-CO-(CH2)18-CO2H); Aib20; C-terminal NH2
B19: Example 75 (peptide)
peptide: B13 peptide with X22F, L26X
modifications: Aib2; αMeL13; K17((2-[2-(2-Amino-ethoxy)-ethoxy]-acetyl)2-(γ-Glu)-CO-(CH2)18-CO2H); Aib20; αMeL26; C-terminal NH2
B20: Example 89 (peptide)
peptide: B13 peptide with E3X, X13L, X22F
modifications: Aib2; Aad3; K17((2-[2-(2-Amino-ethoxy)-ethoxy]-acetyl)2-(γ-Glu)-CO-(CH2)18-CO2H); Aib20; C-terminal NH2
B21: Example 93 (peptide)
peptide: Y[Aib]EGT[αMeF]TSDYSILK([AEEA-AEEA-γGlu-C20 diacid])DKIAQ[Aib]AFIEYLIEGG-NH2
modifications: N-terminus assumed
SMILES: CC[C@H](C)[C@H](NC(=O)[C@H](CCCCN)NC(=O)[C@H](CC(=O)O)NC(=O)[C@H](CCCCNC(=O)COCCOCCNC(=O)COCCOCCNC(=O)CC[C@H](NC(=O)CCCCCCCCCCCCCCCCCCC(=O)O)C(=O)O)NC(=O)[C@H](CC(C)C)NC(=O)[C@@H](NC(=O)[C@H](CO)NC(=O)[C@H](Cc1ccc(O)cc1)NC(=O)[C@H](CC(=O)O)NC(=O)[C@H](CO)NC(=O)[C@@H](NC(=O)[C@](C)(Cc1ccccc1)NC(=O)[C@@H](NC(=O)CNC(=O)[C@H](CCC(=O)O)NC(=O)C(C)(C)NC(=O)[C@@H](N)Cc1ccc(O)cc1)[C@@H](C)O)[C@@H](C)O)[C@@H](C)CC)C(=O)N[C@@H](C)C(=O)N[C@@H](CCC(N)=O)C(=O)NC(C)(C)C(=O)N[C@@H](C)C(=O)N[C@@H](Cc1ccccc1)C(=O)N[C@H](C(=O)N[C@@H](CCC(=O)O)C(=O)N[C@@H](Cc1ccc(O)cc1)C(=O)N[C@@H](CC(C)C)C(=O)N[C@H](C(=O)N[C@@H](CCC(=O)O)C(=O)NCC(=O)NCC(N)=O)[C@@H](C)CC)[C@@H](C)CC

molecular target: T2, human GLP-1 receptor (human, UniProt P43220 24-463); assay: SPA, [125I]-GLP-1 displacement, hGLP-1R membranes
T2 construct: whole, on cells; Used as crude membranes of stably transfected HEK293 cells; also called hGLP1R; hGLP-1R

In order of falling Ki:
1. B6  30.5 nM
2. B19  24.4 nM
3. B10  22.2 nM
4. B12  10.8 nM
5. B16  7.1 nM
6. B5  6.68 nM
7. B13  5.99 nM
8. B11  5.64 nM
9. B15  5.23 nM
10. B1  4.24 nM
11. B2  4.13 nM
12. B14  3.94 nM
13. B4  3.91 nM
14. B18  2.88 nM
15. B17  2.69 nM
16. B8  2.64 nM
17. B20  2.64 nM
18. B21  1.89 nM
19. B9  1.63 nM
20. B3  1.15 nM
21. B7  0.902 nM

molecular target: T3, human glucagon receptor (human, UniProt P47871 26-477); assay: SPA, [125I]-Gcg displacement, hGcgR membranes
T3 construct: whole, on cells; Used as crude membranes of stably transfected HEK293 cells; also called hGcgR; hGLcgR
T3 sequence (P47871 26-477): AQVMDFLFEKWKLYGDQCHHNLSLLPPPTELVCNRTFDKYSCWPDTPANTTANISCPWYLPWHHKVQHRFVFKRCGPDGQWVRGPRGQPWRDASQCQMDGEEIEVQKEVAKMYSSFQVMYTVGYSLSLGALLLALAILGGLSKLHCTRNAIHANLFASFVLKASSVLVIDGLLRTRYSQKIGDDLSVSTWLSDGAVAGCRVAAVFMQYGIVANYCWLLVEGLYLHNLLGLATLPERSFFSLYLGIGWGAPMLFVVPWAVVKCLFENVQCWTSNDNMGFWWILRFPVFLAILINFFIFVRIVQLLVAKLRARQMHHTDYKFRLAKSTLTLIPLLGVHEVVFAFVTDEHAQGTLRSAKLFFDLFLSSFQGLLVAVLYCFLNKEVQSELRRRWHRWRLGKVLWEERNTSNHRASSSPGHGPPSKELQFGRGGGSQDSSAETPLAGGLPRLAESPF

In order of rising Ki:
1. B8  14.4 nM
2. B21  15.7 nM
3. B3  23.6 nM
4. B5  40.3 nM
5. B10  43.8 nM
6. B2  44 nM
7. B6  63.2 nM
8. B13  69.8 nM
9. B12  117 nM
10. B4  123 nM
11. B14  215 nM
12. B19  283 nM
13. B16  320 nM
14. B20  324 nM
15. B18  344 nM
16. B17  429 nM
17. B7  519 nM
18. B15  540 nM
19. B1  545 nM
20. B9  686 nM
21. B11  762 nM

molecular target: T1, human GIP receptor; assay: SPA, [125I]-GIP displacement, hGIPR membranes

In order of rising Ki:
1. B3  0.027 nM
2. B13  0.0279 nM
3. B17  0.0313 nM
4. B20  0.045 nM
5. B9  0.0528 nM
6. B4  0.0565 nM
7. B10  0.0578 nM
8. B11  0.061 nM
9. B7  0.0611 nM
10. B5  0.0645 nM
11. B6  0.0649 nM
12. B8  0.0659 nM
13. B1  0.0717 nM
14. B21  0.0859 nM
15. B19  0.103 nM
16. B2  0.115 nM
17. B12  0.116 nM
18. B16  0.142 nM
19. B14  0.163 nM
20. B18  0.198 nM
21. B15  1.8 nM
